Test results from PMC9018821, “Heterozygous variants in GATA2 contribute to DCML deficiency in mice by disrupting tandem protein binding” (Communications Biology, 2022).

B1: murine GATA2 finger region containing the NF and CF domains (289 aa to 480 aa), wild type, MBP-fused or GST-fused (domain or fragment)
chain: not shown
notes: GATA2, murine, finger region containing the NF and CF domains, residues 289-480; Two differently tagged copies of the same stretch were used; Each copy carries ONE carrier: MBP-fused (bait on amylose beads) or GST-fused (prey in a1, bait on glutathione beads in a2); They are kept as one molecule because the protein is tested against itself; also called G2^WT; MBP-fused G2^WT
B2: murine GATA2 finger region (289 aa to 480 aa) with T354M, GST-fused or MBP-fused (domain or fragment)
chain: not shown
notes: GATA2, murine, finger region containing the NF and CF domains, residues 289-480, with the patient mutation T354M; Each copy carries ONE carrier: GST-fused in a1 (prey), MBP-fused in a2 (prey); The mutation is a germline GATA2 mutation found in patients; also called G2^T354M; GST-fused G2^T354M
B3: murine GATA2 finger region (289 aa to 480 aa) with R398W, GST-fused or MBP-fused (domain or fragment)
chain: not shown
notes: GATA2, murine, finger region containing the NF and CF domains, residues 289-480, with the patient mutation R398W; Each copy carries ONE carrier: GST-fused in a1 (prey), MBP-fused in a2 (prey); The mutation corresponds to a human germline GATA2 mutation found in patients; also called G2^R398W; GST-fused G2^R398W

Key:
[1] = target: the molecule itself; experiment: pull-down; recombinant MBP-fused bait mixed with GST-fused prey in binding buffer at room temperature; complexes purified with amylose magnetic beads; immunoblot with anti-GST and anti-MBP
[2] = target: B1; experiment: as above; conditions: both partners purified

Row | Binder | binding result [1] | binding result [2]
1 | B1 | binds | 
2 | B2 |  | binds
3 | B3 |  | binds
